Data: patent publication US20240116985A1 (published 2024)
Each block holds one binder with its values, some of them ahead of it. Starred links: 1 amine or outer side, 2 acyl side, 3 side chain; linkers in the order of their positions; H or OH if unused. Positions of bridges follow the written chain, without caps; N, C: chain ends. Non-standard residues stand in square brackets, D forms with d. Primed or numbered codes have the meaning given here. PyrS2″ = (S)-3-amino-1-((pent-4-en-1-yloxy)carbonyl)pyrrolidine-3-carboxylic acid (stapling residue), C=CCCCOC(=O)N1CC[C@@](N[*:1])(C(=O)[*:2])C1; B5(17) = 2,2-bis(4-pentenyl)glycine = 2-amino-2-(pent-4-en-1-yl)hept-6-enoic acid, stitching residue, C=CCCCC(CCCC=C)(N[*:1])C(=O)[*:2]; B5(4) = 2,2-bis(4-pentenyl)glycine = 2-amino-2-(pent-4-en-1-yl)hept-6-enoic acid (stitching residue), C=CCCCC(CCCC=C)(N[*:1])C(=O)[*:2]; B5(5) = 2,2-bis(4-pentenyl)glycine, 2-amino-2-(pent-4-en-1-yl)hept-6-enoic acid (stitching residue), C=CCCCC(CCCC=C)(N[*:1])C(=O)[*:2]; TfeGA = (S)-2-amino-3-((carboxymethyl)(2,2,2-trifluoroethyl)amino)propanoic acid, O=C([C@H](CN(CC(=O)[*:3])CC(F)(F)F)N[*:1])[*:2]; PyrS2 = (S)-3-amino-1-((pent-4-en-1-yloxy)carbonyl)pyrrolidine-3-carboxylic acid, C=CCCCOC(=O)N1CC[C@@](N[*:1])(C(=O)[*:2])C1; B5(3) = 2,2-bis(4-pentenyl)glycine (stitching residue), C=CCCCC(CCCC=C)(N[*:1])C(=O)[*:2]; Phe(3-COOH) = N[C@@H](Cc1cccc(C(=O)O)c1)C(=O)O; Phe(2-Cl) = N[C@@H](Cc1ccccc1Cl)C(=O)O; Bta = N[C@@H](Cc1csc2ccccc12)C(=O)O; αAllylPro = C=CC[C@@]1(C(=O)O)CCCN1; tBuAla = CC(C)(C)C[C@H](N)C(=O)O; 3Thi = N[C@@H](Cc1ccsc1)C(=O)O; S8 = C=CCCCCCC[C@](C)(N)C(=O)O; hSer = N[C@@H](CCO)C(=O)O

What was measured:
B-cat-Halo [1] = biological target: T1, B-cat-Halo (UniProt P35222 1-781, HaloTag NanoBRET 618 Ligand bound in the assay); assay: NanoBRET Abs IC50 in HEK293 cells; B-cat-Halo, competitor TCF4-Luc
T1 construct: Transfected into HEK293 cells for the NanoBRET assay; also called beta-catenin HaloTag NanoBRET construct; not shown: HaloTag
T1 sequence (looked up): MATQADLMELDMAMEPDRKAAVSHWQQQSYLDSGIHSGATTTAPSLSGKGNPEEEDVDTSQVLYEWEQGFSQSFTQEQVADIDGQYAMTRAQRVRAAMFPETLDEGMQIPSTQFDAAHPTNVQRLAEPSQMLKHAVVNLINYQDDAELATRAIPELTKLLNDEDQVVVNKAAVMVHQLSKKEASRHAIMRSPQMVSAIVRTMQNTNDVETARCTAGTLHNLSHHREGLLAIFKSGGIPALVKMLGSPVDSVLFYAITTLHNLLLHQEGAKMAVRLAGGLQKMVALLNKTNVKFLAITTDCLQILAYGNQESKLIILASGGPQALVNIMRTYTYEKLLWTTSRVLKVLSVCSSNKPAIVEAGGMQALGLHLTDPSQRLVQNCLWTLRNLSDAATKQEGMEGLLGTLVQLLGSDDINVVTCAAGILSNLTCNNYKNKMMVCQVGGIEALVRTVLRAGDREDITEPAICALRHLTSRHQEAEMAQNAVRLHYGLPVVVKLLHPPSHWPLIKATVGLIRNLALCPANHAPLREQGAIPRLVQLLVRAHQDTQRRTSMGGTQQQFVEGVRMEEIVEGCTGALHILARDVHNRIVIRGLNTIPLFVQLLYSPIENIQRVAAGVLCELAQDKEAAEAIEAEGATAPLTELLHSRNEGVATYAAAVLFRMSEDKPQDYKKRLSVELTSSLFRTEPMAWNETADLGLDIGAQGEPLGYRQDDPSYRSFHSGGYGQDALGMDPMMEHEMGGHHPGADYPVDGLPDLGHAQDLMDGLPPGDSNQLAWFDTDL

[2] = biological target: T2, full-length beta-Catenin (Uniprot ID P35222) (Homo sapiens (Human), UniProt P35222 1-781); assay: fluorescence polarization competition; full-length beta-catenin, competitor 5FAM-TCF4(10-53) probe
T2 construct: also called bCat; B-Catenin
T2 sequence: T1 sequence (looked up)
How it was run: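 Data fitted to 1:1 binding model with hill slope from duplicate reads taken after 60 minutes at 20° C. in the dark.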

[3] = biological target: T3, B-cat-Halo (beta-catenin HaloTag NanoBRET construct expressed in HEK293 cells) (UniProt P35222 1-781); assay: cell-based or functional assay
T3 sequence (looked up): T1 sequence (looked up)

[4] = biological target: T4, beta-catenin in DLD1 TCF/LEF luciferase reporter cells (UniProt P35222 1-781); assay: cell-based or functional assay
T4 sequence (looked up): T1 sequence (looked up)

[5] = biological target: T5, beta-catenin in DLD1 TCF/LEF luciferase reporter cells (Homo sapiens (Human), UniProt P35222 1-781); assay: cell-based or functional assay
T5 sequence: T1 sequence (looked up)

[6] = biological target: T6, beta-catenin in DLD1 TCF/LEF luciferase reporter cells (UniProt P35222 1-781); assay: cell-based or functional assay; remark: listed apart in the source
T6 sequence (looked up): T1 sequence (looked up)

[7] = biological target: T7, Bcat-Halo (beta-catenin HaloTag construct transfected into HEK293 cells) (UniProt P35222 1-781); assay: cell-based or functional assay
T7 sequence (looked up): T1 sequence (looked up)

[8] = biological target: T8, beta-catenin in DLD1 TCF/LEF luciferase reporter cells (UniProt P35222 1-781); assay: cell-based or functional assay; remark: listed apart in the source
T8 sequence (looked up): T1 sequence (looked up)

B-cat-Halo [9] = biological target: T9, B-cat-Halo (UniProt P35222 1-781); assay: NanoBRET Abs IC50 in HEK293 cells; Bcat-Halo, TCF4-Luc as competitor
T9 construct: Expressed by transfection in HEK293 cells for the NanoBRET assay; also called beta-catenin HaloTag NanoBRET construct; not shown: HaloTag
T9 sequence (looked up): T1 sequence (looked up)

[10] = biological target: T10, full-length beta-Catenin (Uniprot ID P35222) (Homo sapiens (Human), UniProt P35222 1-781); assay: competition fluorescence polarization; full-length beta-catenin, 5FAM-TCF4(10-53) probe as competitor
T10 construct: also called bCat; B-Catenin
T10 sequence: T1 sequence (looked up)
Protocol: The plate was incubated protected from light for 60 minutes at 20° C. prior to read. Reads were performed on a CLARIOstar plate reader (BMG Labtech) in duplicate, and data were fitted to a 1:1 binding model with hill slope using an in-house script. All provided concentrations are final concentrations.

IC50 (B-cat-Halo [1]): 11200 nM
IC50 [2]: 35 nM
B1: I-730 (peptide)
peptide: XDLXDEAAFNXFXQA
modifications: not fully specified; N-terminal Ac; C-terminal NH2; PL3 at 1, B5 at 4, S8 at 11, BztA at 13; stapled PL3-B5 and B5-S8 by olefin metathesis
notes: Stapled peptide; also called Ac-PL3-Asp-Leu-B5-Asp-Glu-Ala-Ala-Phe-Asn-S8-Phe-BztA-Gln-Ala-NH2

IC50 (B-cat-Halo [1]): 11600 nM
IC50 [2]: 34 nM
B2: I-731 (peptide)
peptide: Ac-[αAllylPro]DL[B5(17)]DEAAFN[S8]F[Bta]Q[dA]-NH2
modifications: staple 1-4, 4-11
notes: also called Ac-PL3-Asp-Leu-B5-Asp-Glu-Ala-Ala-Phe-Asn-S8-Phe-BztA-Gln-dAla-NH2

NanoBRET Abs IC50 [3]: 2500 nM
DLD1 4% Abs IC50 [4]: 1400 nM
Binder: Ac-[αAllylPro]D[tBuAla][B5(3)]D[TfeGA]AAFL[PyrS2″][3Thi][Bta][Me2Gln]A-NH2 (staple 1-4, 4-11) [Ac-PL3-Asp-Npg-B5-Asp-TfeGA-Ala-Ala-Phe-Leu-PyrS2-3Thi-BztA-Me2Gln-Ala-NH2]

DLD1 4% Abs IC50 [5]: 15900 nM
Binder: Ac-[αAllylPro]D[tBuAla][B5(4)]DDAAFT[PyrS2″][Phe(2-Cl)][Bta]S-NHEt (staple 1-4, 4-11) [I-1244]

DLD1 reporter assay Abs IC50 [6]: 10800 nM
Binder: Ac-[αAllylPro]D[tBuAla][B5(3)]D[TfeGA]AAF[hSer][S8][Phe(2-Cl)][Bta]Q-NH2 (staple 1-4, 4-11) [I-996]

IC50 (B-cat-Halo [1]): 7400 nM
IC50 [2]: 43 nM
B3: I-750 (peptide)
peptide: Ac-[αAllylPro]DL[B5(4)]DEAAFN[S8]F[Bta]S-NH2
modifications: staple 1-4, 4-11; also: olefin E/Z not assigned, earlier-eluting staple isomer
notes: Stapled peptide; same description as I-751, earlier eluting staple isomer composition; also called Ac-PL3-Asp-Leu-B5-Asp-Glu-Ala-Ala-Phe-Asn-S8-Phe-BztA-Ser-NH2

NanoBRET Abs IC50 [7]: 3700 nM
DLD1 4% Abs IC50 [8]: 1700 nM
Binder: Ac-[αAllylPro]D[tBuAla][B5(4)]D[TfeGA]AAFL[PyrS2][3Thi][Bta]Q-NH2 (staple 1-4, 4-11) [I-1461]

NanoBRET Abs IC50 [7]: 2300 nM
DLD1 4% Abs IC50 [8]: 2700 nM
Binder: Ac-[αAllylPro]D[tBuAla][B5(4)]D[Phe(3-COOH)]AAFL[PyrS2″][3Thi][Bta]Q-NH2 (staple 1-4, 4-11) [I-1462]

IC50 (B-cat-Halo [9]): 15700 nM
IC50 [10]: 19 nM
B4: I-563 (peptide)
peptide: XDLXDDAAFNXFXQ
modifications: not fully specified; N-terminal Ac; C-terminal NH2; non-natural PL3 (1), B5 (4), S8 (11), BztA (13); stapled PL3-B5 and B5-S8 by olefin metathesis
notes: Stapled peptide composition; also called Ac-PL3-Asp-Leu-B5-Asp-Asp-Ala-Ala-Phe-Asn-S8-Phe-BztA-Gln-NH2

IC50 (B-cat-Halo [9]): > 20000 nM
IC50 [10]: 36 nM
B5: I-564 (peptide)
peptide: Ac-[αAllylPro]DL[B5(5)]DDAAFN[S8]F[Bta]H-NH2
modifications: staple 1-4, 4-11
notes: Stapled peptide composition; also called Ac-PL3-Asp-Leu-B5-Asp-Asp-Ala-Ala-Phe-Asn-S8-Phe-BztA-His-NH2

IC50 [10]: 76 nM
B6: I-566 (peptide)
peptide: XDVXDDAAFNXFXQ
modifications: not fully specified; N-terminal Ac; C-terminal NH2; non-natural PL3 (1), B5 (4), S8 (11), BztA (13); stapled PL3-B5 and B5-S8 by olefin metathesis
notes: Stapled peptide composition; also called Ac-PL3-Asp-Val-B5-Asp-Asp-Ala-Ala-Phe-Asn-S8-Phe-BztA-Gln-NH2

IC50 [10]: 37 nM
B7: I-567 (peptide)
peptide: XDVXDDAAFNXFXQ
modifications: not fully specified; N-terminal Ac; C-terminal NH2; non-natural PL3 (1), B5 (4), S8 (11), BztA (13); stapled PL3-B5 and B5-S8 by olefin metathesis
notes: as for B6
